Results taken from patent US20210087291A1 (Hoffmann-La Roche, published 2021).
“And” between values parts separate entries of the source, which are not always exact repeats. Identical values can stand only once.

T1: cynomolgus Tim3 (ELISA) (cynomolgus, UniProt A0A2K5U3G7 22-193)
T1 construct: also called Biochem Cyno; cyno TIM3
T1 sequence: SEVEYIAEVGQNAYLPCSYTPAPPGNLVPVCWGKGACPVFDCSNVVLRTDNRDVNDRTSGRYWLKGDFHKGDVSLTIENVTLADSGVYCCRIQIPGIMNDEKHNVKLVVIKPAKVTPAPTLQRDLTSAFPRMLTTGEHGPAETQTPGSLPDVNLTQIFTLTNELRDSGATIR

T2: monomeric cyno Tim3-ECD (cynomolgus, UniProt A0A2K5U3G7 22-195)
T2 construct: extracellular domain; also called cyTim3
T2 sequence: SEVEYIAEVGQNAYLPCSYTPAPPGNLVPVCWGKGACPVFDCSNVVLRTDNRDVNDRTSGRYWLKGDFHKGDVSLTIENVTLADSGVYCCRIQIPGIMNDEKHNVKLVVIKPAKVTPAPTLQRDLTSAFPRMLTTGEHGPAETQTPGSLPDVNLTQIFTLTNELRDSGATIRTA


Experiments:
[1] = target: T3, human TIM-3 on cells (human, UniProt Q8TDQ0 22-301); test: cell-based or functional assay
[2] = target: T4, cynomolgus TIM-3 on isolated cyno CD14+ monocytes (cynomolgus); test: flow cytometry, cyno CD14+ monocytes cyno1
T4 construct: whole, on cells
Source text: (§1) CD14+ Monocytes were isolated from cynomolgus monkey anticoagulated peripheral blood (Covance) by density gradient centrifugation using Ficoll-Paque (GE Healthcare) (see General Protocols in the User Manuals or visit www.miltenyibiotec.com/protocols) and subsequent positive selection via NHP CD14 MicroBeads. First the CD14+ cells are magnetically labeled with CD14 MicroBeads. Then the cell suspension is loaded onto a MACS® Column which is placed in the magnetic field of a MACS Separator. The magnetically labeled CD14+ cells are retained in the column. The unlabeled cells run through, this cell fraction is depleted of CD14+ cells. After removal of the column from the magnetic field, the magnetically retained CD14+ cells can be eluted as the positively selected cell fraction. After centrifugation at 200×g for 10 min at room temperature the monocytes were harvested and used directly in binding assay or resuspended in freezing medium (10% DMSO, 90% FCS) at 1.0E+07 cells/ml and stored in liquid nitrogen.
(§2) 1×10⁵ CD14+ isolated cyno monocytes (50 μl/well) were put into 98 well-v bottom MTP in fresh culture medium and incubated with Redimune® NF Liquid for 15 min at RT to block unspecific binding. Than 50 μl/well of Alexa488 labeled anti-TIM3 (10 μg/ml in cell culture medium) were added and incubated for 1 h at 4° C. After washing and centrifugation MFI signals of stained cells were analyzed by BD Biosciences FACSCanto flow cytometer.

[3] = target: T5, monomeric human Tim3-ECD (human, UniProt Q8TDQ0 22-202); test: SPR Biacore, monovalent Tim3
T5 construct: also called huTim3
Procedure: (§3) Therefore, an anti-mouse IgG was immobilized by amine coupling to the surface of a (Biacore) CM5 sensor chip. The samples were then captured and hu/cy Tim3-ECD was bound to them. The sensor chip surface was regenerated after each analysis cycle. The equilibrium constant KD was finally gained by fitting the data to a 1:1 langmuir interaction model.
(§4) Flow cell temperature was set to 25° C. and sample compartment temperature to 12° C. The system was primed with running buffer. The samples were injected for 30 seconds with a concentration of 200 μg/ml and bound to the spots 1 and 5 of each flow cell, allowing the measurement of eight samples in parallel. Then a complete set of different (monomeric cyno, monomeric human and huFc fused dimeric human Tim3-ECD) concentrations (s. Table X) was injected over each sample for 240 s followed by a dissociation time of 30/1800 s (s. Table 1). Each analysis cycle (sample capture, spot 1 and 5—Tim3 ECD injection) was then regenerated with a 30 seconds long injection of Glycine-HCl pH 1.7. The flow rate was set to 30 μl/min for the whole run. Finally, the double referenced data was fitted to a 1:1 langmuir interaction model with the Biacore B4000 Evaluation Software.

[4] = target: T3, human TIM-3 on cells; test: flow cytometry, human CD14+ monocytes donor3
Source text: (§5) CD14+ Monocytes were isolated from anticoagulated peripheral blood of healthy donors by density gradient centrifugation using Ficoll-Paque (GE Healthcare) (see General Protocols in the User Manuals or visit www.miltenyibiotec.com/protocols) and subsequent positive selection via CD14 MicroBeads. First the CD14+ cells are magnetically labeled with CD14 MicroBeads. Then the cell suspension is loaded onto a MACS® Column which is placed in the magnetic field of a MACS Separator. The magnetically labeled CD14+ cells are retained in the column. The unlabeled cells run through, this cell fraction is depleted of CD14+ cells. After removal of the column from the magnetic field, the magnetically retained CD14+ cells can be eluted as the positively selected cell fraction. After centrifugation at 200×g for 10 min at room temperature the monocytes were harvested and used directly in binding assay or resuspended in freezing medium (10% DMSO, 90% FCS) at 1.0E+07 cells/ml and stored in liquid nitrogen.
(§6) 1×10⁵ CD14+ isolated human monocytes (50 μl/well) were put into 98 well-v bottom MTP in fresh culture medium and incubated with Redimune® NF Liquid for 15 min at RT to block unspecific binding. […] After washing and centrifugation MFI signals of stained cells were analyzed by BD Biosciences FACSCanto flow cytometer.

[5] = target: T4, cynomolgus TIM-3 on isolated cyno CD14+ …; test: flow cytometry, cyno CD14+ monocytes cyno3
Source text: as §1, §2

[6] = target: T3, human TIM-3 on cells; test: flow cytometry, human CD14+ monocytes donor2
Source text: as §5, §6

[7] = target: T6, huFc fused dimeric human Tim3-ECD (human, UniProt Q8TDQ0 22-202); test: SPR Biacore, antibody captured by anti-mouse IgG
T6 construct: also called huTim3Fc; bivalent Tim3
Procedure: as §3, §4

[8] = target: T5, monomeric human Tim3-ECD; test: SPR Biacore, antibody captured by anti-mouse IgG
Procedure: as §3, §4

[9] = target: T3, human TIM-3 on cells; test: cell ELISA, CHO-K1 expressing human Tim3
Procedure: Then the reaction was stopped by addition of 25 μl/well 1N HCL-solution.

[10] = target: T3, human TIM-3 on cells; test: flow cytometry, human CD14+ monocytes donor1
Source text: as §5, §6

[11] = target: T4, cynomolgus TIM-3 on isolated cyno CD14+ …; test: flow cytometry, cyno CD14+ monocytes cyno2
Source text: as §1, §2

[12] = target: T7, Tim3-ECD-His-Biotin (human, UniProt Q8TDQ0 22-202); test: ELISA on Tim3-ECD-His-Biotin
T7 construct: also called human Tim3 (ELISA); Biochem Human
Procedure: After washing (3×90 μl/well with PBST-buffer) 25 μl aTim3 samples or diluted (1:2 steps) reference antibody aTim3 F38-2E2 (Biolegend) was added and incubated 1 h at RT. After washing (3×90 μl/well with PBST-buffer) 25 μl/well sheep-anti-mouse-POD (GE NA9310V) was added in 1:9000 dilution and incubated at RT for 1 h while shaking at 400 rpm rotation. After washing (4×90 μl/well with PBST-buffer) 25 μl/well TMB substrate (Calbiochem, #CL07) was added and incubated until OD 1.5-2.5. Then the reaction was stopped by addition of 25 μl/well 1N HCL-solution.

[13] = target: T3, human TIM-3 on cells; test: cell-based or functional assay; remark: listed apart in the source
[14] = target: T3, human TIM-3 on cells; test: cell-based or functional assay; remark: listed apart in the source
[15] = target: T6, huFc fused dimeric human Tim3-ECD; test: SPR Biacore, bivalent Tim3
Procedure: as §3, §4

[16] = target: T8, cynomolgus FolR1 ECD-AcTev-Fcknob-Avi tag + Fc hole, biotinylated monomeric Fc fusion (cynomolgus, UniProt P0DOX5 223-449 = IgG part); test: SPR, apparent KD, bivalent binding (avidity)
T8 construct: also called cyFolR1; cyno FolR1-Fc
Procedure: (§7) Binding of FolR1 binders as IgG or in the T-cell bispecific format to different recombinant folate receptors (human FolR1, 2 and 3, murine FolR1 and cynomolgus FolR1; all as Fc fusions) was assessed by surface plasmon resonance (SPR).
Recombinant biotinylated monomeric Fc fusions of human, cynomolgus and murine Folate Receptor 1 (FolR1-Fc) were directly coupled on a SA chip using the standard coupling instruction (Biacore, Freiburg/Germany). The immobilization level was about 300-400 RU. The anti-FolR1 IgGs or T cell bispecifics were passed at a concentration range from 2.1 to 500 nM with a flow of 30 μL/minutes through the flow cells over 180 seconds. The dissociation was monitored for 600 seconds. Bulk refractive index differences were corrected for by subtracting the response obtained on reference flow cell immobilized with recombinant biotinylated IL2 receptor Fc fusion. […] The binding curves resulting from the bivalent binding of the IgGs or T cell bispecifics were approximated to a 1:1 Langmuir binding and fitted with that model (which is not correct, but gives an idea of the avidity). The apparent avidity constants for the interactions were derived from the rate constants of the fitting using the Bia Evaluation software (GE Healthcare).

[17] = target: T8, cynomolgus FolR1 ECD-AcTev-Fcknob-Avi …; test: SPR, monovalent, antibody captured by anti-Fab
Procedure: as §7
For affinity measurement, direct coupling of around 6000-7000 resonance units (RU) of the anti-human Fab specific antibody (Fab capture kit, GE Healthcare) was performed on a CM5 chip at pH5.0 using the standard amine coupling kit (GE Healthcare). Anti-FolR1 IgGs or T cell bispecifics were captured at 20 nM with a flow rate of 10 μl/min for 20 or 40 sec, the reference flow cell was left without capture. […] The dissociation phase was monitored for 240 sand triggered by switching from the sample solution to HBS-EP. The chip surface was regenerated after every cycle using a double injection of 60 sec 10 mM Glycine-HCl pH 2.1 or pH1.5. Bulk refractive index differences were corrected for by subtracting the response obtained on the reference flow cell 1. The affinity constants for the interactions were derived from the rate constants by fitting to a 1:1 Langmuir binding using the Bia Evaluation software (GE Healthcare).

[18] = target: T7, Tim3-ECD-His-Biotin; test: ELISA, human Tim3
[19] = target: T1, cynomolgus Tim3 (ELISA); test: ELISA, cyno Tim3; EC50 relative to the sample's max value
[20] = target: T2, monomeric cyno Tim3-ECD; test: SPR Biacore, antibody captured by anti-mouse IgG
Procedure: as §3, §4

[21] = target: T3, human TIM-3 on cells; test: cell ELISA, CHO-Tim3
[22] = target: T1, cynomolgus Tim3 (ELISA); test: ELISA, cyno Tim3
[23] = target: T3, human TIM-3 on cells; test: cell ELISA, CHO-Tim3; EC50 relative to the sample's max value
[24] = target: T7, Tim3-ECD-His-Biotin; test: ELISA, human Tim3; EC50 relative to the sample's max value

| Binder | MFI [2] [MFI] | specific binding MFI [4] [MFI] | MFI [5] [MFI] | specific binding MFI [6] [MFI] | Kd [7] [nM] | Kd [8] [nM] | EC50 [9] | specific binding MFI [10] [MFI] | MFI [11] [MFI] | EC50 [12] | IFN-gamma release in MLR at 1 µg/ml, % of IL-2 control [14] [%] | IFN-gamma release in MLR at 10 µg/ml, % of IL-2 control [14] [%] | IFN-gamma release in MLR at 40 µg/ml, % of IL-2 control [14] [%] | Kd [15] [nM] | Kd [20] [nM] | also measured |
| --- | --- | --- | --- | --- | --- | --- | --- | --- | --- | --- | --- | --- | --- | --- | --- | --- |
| Tim3_0021 Fab-PE24 construct (Fab, V domains shown) VH: QVQLQQSGPQLVRPGASVQISCKASGYSFTSYLLHWLKQRPGQGLEWIGMIDPSDSETRLNQKFKDKATLTVDKSSSTAYMQLSSPTSEDSAVYYCARDGYYAWYYFDCWGQGTTLTVSS VL: DIVLTQSPATLSVTPGDRVSLSCRASQSIGNNLHWYQQKSHESPRLLIKYASHSISGIPSKFSGTGSGTDFTLSFNSVETEDFGMYFCQQSNSWPLTFGAGTKLELK | – | – | – | – | – | – | – | – | – | – | – | – | – | – | – | Max. killing, Pfeiffer cells [1]: 98.4% |
| Tim3_0021 (antibody, V domains shown) VH: QVQLQQSGPQLVRPGASVQISCKASGYSFTSYLLHWLKQRPGQGLEWIGMIDPSDSETRLNQKFKDKATLTVDKSSSTAYMQLSSPTSEDSAVYYCARDGYYAWYYFDCWGQGTTLTVSS VL: DIVLTQSPATLSVTPGDRVSLSCRASQSIGNNLHWYQQKSHESPRLLIKYASHSISGIPSKFSGTGSGTDFTLSFNSVETEDFGMYFCQQSNSWPLTFGAGTKLELK | 348 | 1200 | 399 | 951 | 4.07 | 204 | 0.073 µg/mL | 1130 | 473 | 0.047 µg/mL | 101 | 108 | 112 | 4.1 | – | Kd [3]: 204 nM; internalization at 30 Min, RPMI-8226 [13]: 70%; internalization at 60 Min, RPMI-8226 [13]: 75%; internalization at 120 Min, RPMI-8226 [13]: 74%; internalization at 240 Min, RPMI-8226 [13]: 78%; internalization at 26 h, RPMI-8226 [13]: 77% |
| Farletuzumab (antibody, V domains shown) VH: EVQLVESGGGVVQPGRSLRLSCSASGFTFSGYGLSWVRQAPGKGLEWVAMISSGGSYTYYADSVKGRFAISRDNAKNTLFLQMDSLRPEDTGVYFCARHGDDPAWFAYWGQGTPVTVSS VL: DIQLTQSPSSLSASVGDRVTITCSVSSSISSNNLHWYQQKPGKAPKPWIYGTSNLASGVPSRFSGSGSGTDYTFTISSLQPEDIATYYCQQWSSYPYMYTFGQGTKVEIKR | – | – | – | – | – | – | – | – | – | – | – | – | – | – | – | Kd [16]: 0.65 nM; Kd [17]: 67.3 nM |
| Tim3_0033 Fab-PE24 construct (Fab, V domains shown) VH: QGQMHQSGAELVKPGSSVKLSCKTSGFTFSSSFISWLKQKPGQSLEWIAWIYAATGSTSYNQKFTNKAQLTVDTSSSAAYMQFSSLTTEDSAIYYCARHAGYPHYYAMDYWGQGTSVTVSS VL: DIQMTQSPASLSASVGETVTITCRASENIFSNLAWYQQKQGKSPQLLVYSATNLGDGVPSRFSGSGSGTQFSLKINSLQPEDFGNYYCQHFYKIPFTFGTGTKLEIK | – | – | – | – | – | – | – | – | – | – | – | – | – | – | – | Max. killing, Pfeiffer cells [1]: 99.8%; Max. killing, RPMI-8226 cells [1]: 99.7% |
| Tim3_0033 (antibody, V domains shown) VH: QGQMHQSGAELVKPGSSVKLSCKTSGFTFSSSFISWLKQKPGQSLEWIAWIYAATGSTSYNQKFTNKAQLTVDTSSSAAYMQFSSLTTEDSAIYYCARHAGYPHYYAMDYWGQGTSVTVSS VL: DIQMTQSPASLSASVGETVTITCRASENIFSNLAWYQQKQGKSPQLLVYSATNLGDGVPSRFSGSGSGTQFSLKINSLQPEDFGNYYCQHFYKIPFTFGTGTKLEIK | 71 | 595 | 83 | 328 | 3.05 | – | 3.71 µg/mL | 480 | 81 | 1.32 µg/mL | 0 | 30 | 35 | 3.1 | – | internalization at 30 Min, RPMI-8226 [13]: 75%; internalization at 60 Min, RPMI-8226 [13]: 81%; internalization at 120 Min, RPMI-8226 [13]: 82%; internalization at 240 Min, RPMI-8226 [13]: 82%; internalization at 26 h, RPMI-8226 [13]: 80% |
| Tim3_0016 variant (Tim3_0018) (antibody, V domains shown, also called TIM3-0016 variant (0018); aTim3 0018) VH: QVTLKESGPGILQPSQTLSLTCSFSGFSLSTSGMSVGWIRQPSGKGLEWLAHIWLNDDVFFNPALKRRLTISKDTSNNQVFLQIASVVTADTATYYCVRANGYLYALDYWGQGISVTVSS VL: QIVLTQSPAIMSASPGQKVTITCSASSSVNYTQWYQQKLGSSPKLWIYDAFKLAPGVPARFSGSGTGTSYSLTISSMEAEDAASYFCHQWSSYPWTFGGGTKLEIK | 301 | 1940 | 417 | 1820 | 1.11 | 3.4 | 0.52 nM and 0.087 µg/mL | 2330 | 480 | 0.56 nM and 0.094 µg/mL | 12 | 30 | 36 | 1.1 | 41.9 | inflexion point [18]: 15.3 ng/mL; Kd [3]: 3.4 nM; EC50 [19]: 0.0146 µg/mL; inflexion point [21]: 29.4 ng/mL; inflexion point [22]: 14.6 ng/mL; EC50 [23]: 0.0264 µg/mL; EC50 [24]: 0.0161 µg/mL |
| Tim3_0016 (antibody, V domains shown, also called clone 0016) VH: QVTLKESGPGILQPSQTLRLTCSFSGFSLSTSGMSVGWIRQPSGKGLEWLAHIWLNDDVFFNPALKSRLTISKDTSNNQVFLQIASVVTADTATYYCVRANGYLYALDYWGQGTSVTVSS VL: QIVLTQSPAIMSASPGQKVTITCSASSSVNYTQWYQQKLGSSPKLWIYDAFKLAPGVPARFSGSGTGTSYSLTISSMEAEDAASYFCHQWSSYPWTFGGGTKLEIK | 157 | 1690 | 187 | 1630 | – | – | – | 2120 | 177 | – | 7 | 22 | – | – | 21.6 | – |
| Tim3_0022 (antibody, V domains shown) VH: EVQLQESGPSLVKPSQTLSLTCSVTGDSIASAYWNWIRKFPGNKLEYMGYINYSGSTYYNPSLKSRISITRDTSQNQYYLQLNSVTTEDTATYYCVTGDYFDYWGRGTTLTVSS VL: DIQMTQSPSSLSAYLGGKVTITCKARQDVRKNIGWYQHKPGKGPRLLIWYTSTLQSGIPSRFSGSGSGRDYSFNINNLEPEDIATYYCLQYDNLPFTFGTGTKLEIR | 115 | 1240 | 138 | 1110 | – | 126 | – | 1470 | 134 | – | – | – | – | – | 28.4 | – |
